Experimental data taken from patent publication US5955579, “Islet-specific homeoprotein and transcriptional regulator of insulin gene expression, HOXB13” (Strang Cancer Prevention Center).

Target: HoxB13 (CIX-1, Isl-3) (Rattus norvegicus)
Assay: EMSA; described as high affinity; competed by 50 ng unlabeled FLAT; 50 mM KCl, 20 mM HEPES pH 7.8, 1 mM EDTA, 20% glycerol, room temperature
Conditions: tags: GST fusion (pGEX-3X) expressed in E. coli BL21, GST removed by factor Xa; GATC 5' overhangs filled in
Protocol: For gel shift assays, the labeled fragment was incubated 15 minutes at room temperature with buffer alone (50 mM KCI, 20 mM HEPES pH 7.8, 1 mM EDTA, 20% glycerol, 1 mM DTt and 1 mM PMSF), 1 μl bacterially expressed HoxB13 (see Example 3; "rCIX-1" in FIG. 4), 1 μl HoxB13 and 50 ng unlabeled FLAT DNA ("rCIX-1+50 ng FLAT" in FIG. 4), 5 μg Hela cell nuclear extract, 5 μg RIN cell nuclear extract, 5 μg RIN extract and 50 ng FLAT, 5 μg HeLa extract and 50 ng FLAT (respectively, as shown in FIG. 4). The samples were then run on a 5% acrylamide gel in 0.5× TBE.

Sequence of HoxB13 (CIX-1, Isl-3) (Rattus norvegicus) (chain, as listed by the source): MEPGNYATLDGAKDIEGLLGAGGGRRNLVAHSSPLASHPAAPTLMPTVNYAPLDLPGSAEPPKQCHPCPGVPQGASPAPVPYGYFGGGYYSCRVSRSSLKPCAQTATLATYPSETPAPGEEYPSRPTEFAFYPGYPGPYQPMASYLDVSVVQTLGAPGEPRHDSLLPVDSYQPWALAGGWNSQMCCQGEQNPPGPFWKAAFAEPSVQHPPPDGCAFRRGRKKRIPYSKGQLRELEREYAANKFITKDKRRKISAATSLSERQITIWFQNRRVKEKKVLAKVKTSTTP

B1: FLAT element probe (dsDNA)
DNA 1: GATCCCCTTGTTAATAATCTAATTACCCTAGG
DNA 2: GATCCCTAGGGTAATTAGATTATTAACAAGGG
B1: binds.
